From publication PMC8087782, “Developing Nanodisc-ID for label-free characterizations of membrane proteins” (Communications Biology, 2021)

Legend:
[1] = target: vesicle (v-) SNAREs reconstituted in APEX2-MSP1D1 nanodiscs (UniProt P63045); assay: proximity labelling; nanodisc-ID: liposomes harboring t-SNAREs incubated with APEX2-MSP1D1 nanodiscs bearing v-SNAREs, without syt1-Ca2+; PL efficiency of t-SNAREs against v-SNARE nanodisc concentration; PBS, room temp; one-site fit; apparent
[2] = target: vesicle (v-) SNAREs reconstituted in APEX2-MSP1D1 nanodiscs (UniProt P63045); assay: as above; remark: listed apart in the source
[3] = target: vesicle (v-) SNAREs reconstituted in APEX2-MSP1D1 nanodiscs (UniProt P63045); assay: proximity labelling; nanodisc-ID: liposomes harboring t-SNAREs incubated with APEX2-MSP1D1 nanodiscs bearing v-SNAREs, with syt1-Ca2+; PL efficiency of t-SNAREs against v-SNARE nanodisc concentration; PBS, room temp; one-site fit; apparent
MalFGK2 = target: T1, MalFGK2 (Escherichia coli, UniProt P68187); conditions: APEX2-MSP1D1 nanodiscs; MalE and maltose
T1 construct: gene malK
T1 sequence (P68187 whole entry): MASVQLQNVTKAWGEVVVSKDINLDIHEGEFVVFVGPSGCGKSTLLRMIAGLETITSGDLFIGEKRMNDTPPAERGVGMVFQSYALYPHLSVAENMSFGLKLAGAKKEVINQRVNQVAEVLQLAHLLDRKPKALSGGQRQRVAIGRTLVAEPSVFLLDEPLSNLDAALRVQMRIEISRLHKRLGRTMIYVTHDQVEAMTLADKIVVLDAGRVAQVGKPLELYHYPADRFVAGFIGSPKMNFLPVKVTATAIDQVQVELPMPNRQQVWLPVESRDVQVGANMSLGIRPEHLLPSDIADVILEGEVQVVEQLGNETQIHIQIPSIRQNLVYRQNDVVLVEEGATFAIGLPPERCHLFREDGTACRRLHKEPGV
T1 sequence (P02916 whole entry, further chain): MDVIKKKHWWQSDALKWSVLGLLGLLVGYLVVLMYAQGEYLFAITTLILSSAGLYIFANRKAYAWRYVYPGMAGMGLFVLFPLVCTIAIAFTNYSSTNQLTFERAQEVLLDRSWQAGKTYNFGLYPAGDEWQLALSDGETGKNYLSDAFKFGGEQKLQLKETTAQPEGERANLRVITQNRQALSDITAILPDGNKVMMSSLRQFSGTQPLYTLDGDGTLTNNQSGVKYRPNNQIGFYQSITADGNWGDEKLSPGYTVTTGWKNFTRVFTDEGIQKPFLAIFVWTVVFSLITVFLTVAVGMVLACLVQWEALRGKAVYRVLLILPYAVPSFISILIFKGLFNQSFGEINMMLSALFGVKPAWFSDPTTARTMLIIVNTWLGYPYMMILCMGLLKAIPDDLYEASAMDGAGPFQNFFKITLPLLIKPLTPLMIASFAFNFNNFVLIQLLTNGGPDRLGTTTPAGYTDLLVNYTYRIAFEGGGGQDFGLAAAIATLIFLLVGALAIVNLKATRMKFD
T1 sequence (P68183 whole entry, further chain): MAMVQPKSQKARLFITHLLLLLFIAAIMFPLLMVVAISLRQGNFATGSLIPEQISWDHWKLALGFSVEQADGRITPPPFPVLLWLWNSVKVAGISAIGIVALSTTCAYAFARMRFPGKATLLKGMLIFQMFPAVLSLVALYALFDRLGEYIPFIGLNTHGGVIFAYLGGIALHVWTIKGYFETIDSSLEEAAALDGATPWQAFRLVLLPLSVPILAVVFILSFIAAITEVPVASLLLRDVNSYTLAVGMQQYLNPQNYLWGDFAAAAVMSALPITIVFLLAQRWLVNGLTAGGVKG

| Molecule | Kd [1] | Kd [2] | Kd [3] | photo-colorimetric ATPase assay (MalFGK2) |
| --- | --- | --- | --- | --- |
| target (t-) membrane SNAREs embedded in liposomes (complex) | 2.8 µM | 2.6 µM | 0.086 µM | – |
| Nc1ncnc2c1ncn2[C@@H]1O[C@H](COP(=O)(O)OP(=O)(O)OP(=O)(O)O)[C@@H](O)[C@H]1O [ATP] | – | – | – | the ATPase activity of MalFGK2 was responding to the addition of MalE and maltose |
